Entries after “also recorded” stand apart in the source; their conditions may differ.
Experiments:
[1] = Body weight, survival and tolerance of mice bearing Calu-6 (Example 9); details: mean ± SE;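 also: nude mice bearing Calu-6 tumours, established by implanting 5.0×10^6 cells at the right shoulder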
Protocol: 5.0×10^6 of Calu-6 tumor cells were suspended in 0.1 ml of PBS, inoculated to each nude mouse at the right shoulder, and there were totally 34 mice inoculated.

[2] = Body weight, survival and tolerance of mice bearing plc/prf/5 (Example 6); format: in vivo, nude mouse; details: mean ± SE
Description: Wherein QW×4W represents intravenous injection once a week for 4 weeks, BIW×4W represents intravenous injection […] for 4 weeks, the same below. (2) Experimental Results

[3] = Body weight, survival and tolerance of mice bearing H460 (Example 8); details: mean ± SE
Protocol: 5.0×10^6 of H460 tumor cells were suspended in 0.1 ml of PBS, inoculated to each nude mouse at the right shoulder, and there were totally 34 mice inoculated. 8 days later the mean tumor volume was desired to reach about 143 mm^3, the mice with a smaller or larger tumor were removed and the remaining 24 mice were divided into groups randomly according to tumor volume and administrated.

[4] = Body weight, survival and tolerance of mice bearing A549 (Example 10); details: mean ± SE;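 also: nude mice, each given 1.0×10^7 A549 tumor cells in the right shoulder region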
Protocol: 1.0×10^7 of A549 tumor cells were suspended in 0.1 ml of PBS, inoculated to each nude mouse at the right shoulder, and there were totally 36 mice inoculated.

[5] = test system: human hepatoma cell plc/prf/5; experiment: Anti-tumor effect on subcutaneous transplantation tumor model of plc/prf/5 in NOD/SCID mice (Example 5); format: in vivo, NOD/SCID mouse; details: for Tumor volume: 10 mg/kg (counted with rapamycin) i.v. Q2W×2W, mean ± SE
Protocol: The tumor cells were passaged with digestion by trypsin-EDTA twice a week. The cells in the exponential growth phase were collected, counted, and used for inoculation.
1×10^7 of plc/prf/5 tumor cells were suspended in 0.1 ml of mixed solution (PBS:Matrigel=4:1), inoculated to each NOD/SCID mouse at the right shoulder.
Wherein Q2W×2W represents intravenous injection […] for 2 weeks, the same below. (2) Experimental Results

[6] = day 17 after inoculation, 30 mg/kg i.v. BIW×4W
[7] = day 17 after inoculation, 45 mg/kg i.v. QW×4W
[8] = day 24 after inoculation, 30 mg/kg i.v. BIW×4W
[9] = day 24 after inoculation, 45 mg/kg i.v. QW×4W
[10] = day 28 after inoculation, 30 mg/kg i.v. BIW×4W
[11] = day 28 after inoculation, 45 mg/kg i.v. QW×4W
[12] = day 31 after inoculation, 30 mg/kg i.v. BIW×4W
[13] = day 31 after inoculation, 45 mg/kg i.v. QW×4W
[14] = day 35 after inoculation, 30 mg/kg i.v. BIW×4W
[15] = day 35 after inoculation, 45 mg/kg i.v. QW×4W
[16] = day 38 after inoculation, 30 mg/kg i.v. BIW×4W
[17] = day 42 after inoculation, 30 mg/kg i.v. BIW×4W
[18] = day 42 after inoculation, 45 mg/kg i.v. QW×4W
[19] = day 38 after inoculation, 45 mg/kg i.v. QW×4W

monomethoxy polyethylene glycol (20K)-glutamic acid dipeptide-rapamycin conjugate [LPR-2]
Body weight of animal ([1]; day 14 after inoculation, 30 mg/kg i.v. BIW×4W): 20.9 ± 0.4 g
Body weight of animal ([1]; day 14 after inoculation, 45 mg/kg i.v. QW×4W): 20.6 ± 0.4 g
Body weight of animal [1, 6]: 21.0 ± 0.4 g
Body weight of animal [1, 7]: 20.0 ± 0.4 g
Body weight of animal ([1]; day 21 after inoculation, 30 mg/kg i.v. BIW×4W): 21.7 ± 0.4 g
Body weight of animal ([1]; day 21 after inoculation, 45 mg/kg i.v. QW×4W): 19.9 ± 0.6 g
Body weight of animal [1, 8]: 21.6 ± 0.3 g
Body weight of animal [1, 9]: 20.9 ± 0.5 g
Body weight of animal [1, 10]: 22.4 ± 0.4 g
Body weight of animal [1, 11]: 21.3 ± 0.6 g
Body weight of animal [1, 12]: 21.6 ± 0.4 g
Body weight of animal [1, 13]: 20.7 ± 0.6 g
Body weight of animal [1, 14]: 22.2 ± 0.4 g
Body weight of animal [1, 15]: 21.8 ± 0.6 g
Body weight of animal [1, 16]: 22.3 ± 0.4 g
Body weight of animal [1, 17]: 22.4 ± 0.3 g
Body weight of animal [1, 18]: 21.5 ± 0.5 g
Body weight of animal ([2]; day 10 after inoculation, 30 mg/kg i.v. BIW×4W): 19.9 ± 0.5 g
Body weight of animal ([2]; day 10 after inoculation, 45 mg/kg i.v. QW×4W): 19.8 ± 0.5 g
Body weight of animal ([2]; day 13 after inoculation, 30 mg/kg i.v. BIW×4W): 19.6 ± 0.8 g
Body weight of animal ([2]; day 13 after inoculation, 45 mg/kg i.v. QW×4W): 18.9 ± 0.5 g
Body weight of animal [2, 6]: 20.7 ± 0.7 g
Body weight of animal [2, 7]: 20.2 ± 0.3 g
Body weight of animal ([2]; day 20 after inoculation, 30 mg/kg i.v. BIW×4W): 20.4 ± 0.6 g
Body weight of animal ([2]; day 20 after inoculation, 45 mg/kg i.v. QW×4W): 19.7 ± 0.3 g
Body weight of animal [2, 8]: 20.6 ± 0.7 g
Body weight of animal [2, 9]: 21.1 ± 0.3 g
Body weight of animal ([2]; day 27 after inoculation, 30 mg/kg i.v. BIW×4W): 20.5 ± 0.6 g
Body weight of animal ([2]; day 27 after inoculation, 45 mg/kg i.v. QW×4W): 20.7 ± 0.2 g
Body weight of animal [2, 12]: 20.1 ± 0.6 g
Body weight of animal [2, 13]: 21.0 ± 0.2 g
Body weight of animal ([2]; day 34 after inoculation, 30 mg/kg i.v. BIW×4W): 19.5 ± 0.6 g
Body weight of animal ([2]; day 34 after inoculation, 45 mg/kg i.v. QW×4W): 19.7 ± 0.5 g
Body weight of animal [2, 16]: 19.8 ± 0.7 g
Body weight of animal [2, 19]: 20.7 ± 0.3 g
Body weight of animal ([3]; day 8 after inoculation, 30 mg/kg i.v. BIW×3W): 20.5 ± 0.5 g
Body weight of animal ([3]; day 8 after inoculation, 45 mg/kg i.v. QW×3W): 20.2 ± 0.4 g
Body weight of animal ([3]; day 12 after inoculation, 30 mg/kg i.v. BIW×3W): 20.3 ± 0.5 g
Body weight of animal ([3]; day 12 after inoculation, 45 mg/kg i.v. QW×3W): 19.8 ± 0.3 g
Body weight of animal ([3]; day 15 after inoculation, 30 mg/kg i.v. BIW×3W): 20.7 ± 0.4 g
Body weight of animal ([3]; day 15 after inoculation, 45 mg/kg i.v. QW×3W): 20.9 ± 0.3 g
Body weight of animal ([3]; day 19 after inoculation, 30 mg/kg i.v. BIW×3W): 21.0 ± 0.5 g
Body weight of animal ([3]; day 19 after inoculation, 45 mg/kg i.v. QW×3W): 20.7 ± 0.3 g
Body weight of animal ([3]; day 22 after inoculation, 30 mg/kg i.v. BIW×3W): 20.7 ± 0.4 g
Body weight of animal ([3]; day 22 after inoculation, 45 mg/kg i.v. QW×3W): 20.4 ± 0.3 g
Body weight of animal ([3]; day 26 after inoculation, 30 mg/kg i.v. BIW×3W): 20.9 ± 0.5 g
Body weight of animal ([3]; day 26 after inoculation, 45 mg/kg i.v. QW×3W): 21.4 ± 0.3 g
Body weight of animal ([3]; day 29 after inoculation, 30 mg/kg i.v. BIW×3W): 21.1 ± 0.4 g
Body weight of animal ([3]; day 29 after inoculation, 45 mg/kg i.v. QW×3W): 22.1 ± 0.3 g
Body weight of animal [4, 8]: 21.6 ± 0.5 g
Body weight of animal [4, 9]: 20.9 ± 0.3 g
Body weight of animal [4, 10]: 20.9 ± 0.4 g
Body weight of animal [4, 11]: 20.8 ± 0.1 g
Body weight of animal [4, 12]: 21.4 ± 0.4 g
Body weight of animal [4, 13]: 21.1 ± 0.2 g
Body weight of animal [4, 14]: 21.8 ± 0.4 g
Body weight of animal [4, 15]: 21.1 ± 0.3 g
Body weight of animal [4, 16]: 21.6 ± 0.4 g
Body weight of animal [4, 19]: 21.6 ± 0.3 g
Body weight of animal [4, 17]: 22.5 ± 0.3 g
Body weight of animal [4, 18]: 22.0 ± 0.3 g
Body weight of animal ([4]; day 45 after inoculation, 30 mg/kg i.v. BIW×4W): 22.2 ± 0.3 g
Body weight of animal ([4]; day 45 after inoculation, 45 mg/kg i.v. QW×4W): 22.4 ± 0.3 g
Body weight of animal ([4]; day 49 after inoculation, 30 mg/kg i.v. BIW×4W): 22.0 ± 0.3 g
Body weight of animal ([4]; day 49 after inoculation, 45 mg/kg i.v. QW×4W): 21.5 ± 0.3 g
Body weight of animal ([4]; day 52 after inoculation, 30 mg/kg i.v. BIW×4W): 22.0 ± 0.3 g
Body weight of animal ([4]; day 52 after inoculation, 45 mg/kg i.v. QW×4W): 22.1 ± 0.3 g
anti-tumor effect (in words) ([5]; 10 mg/kg counted with rapamycin, i.v. Q2W×2W): stronger antitumor activity than that of polyethylene glycol-rapamycin (LPR-1); also recorded: a certain anti-tumor effect; also recorded: obviously the maximum anti-tumor effect; also recorded: anti-tumor effect significantly higher than that of LPR-1
Days for delaying tumor growth (to 1000 mm^3) ([5]; 10 mg/kg i.v. Q2W×2W): >7 days
Tumor volume ([5]; day 24 after inoculation): 353 ± 54 mm^3
Tumor volume ([5]; day 27 after inoculation): 404 ± 89 mm^3
Tumor volume ([5]; day 31 after inoculation): 391 ± 72 mm^3
Tumor volume ([5]; day 34 after inoculation): 456 ± 77 mm^3
Tumor volume ([5]; day 38 after inoculation): 536 ± 77 mm^3

Source: patent US10098870B2 (JENKEM TECHNOLOGY CO., LTD. (BEIJING), priority 2013, dated 2018)
